Source: PMC3031242, “A novel neuron-enriched protein SDIM1 is down regulated in Alzheimer's brains and attenuates cell death induced by DNAJB4 over-expression in neuro-progenitor cells” (Molecular Neurodegeneration, 2011)

Target: the molecule itself
Assay: dimer-sized band on SDS-PAGE and Western blot; purified GST-SDIM1 (Coomassie and anti-SDIM1 blot, Figure 3A; anti-GST blot of the anti-GST immunoprecipitate, Figure 3D left panel lane 4)

B1: GST-SDIM1 fusion protein (domain or fragment, human, UniProt Q6ZPB5 27-146, looked up)
chain: AGPSPGARTTLGSPLSLWSIKTPSHIFCTRRAINLGFPSPPLVQLIFWSLNAGLDLYLCLISSCGFSQVFWPVEAFCSFSLSFFALALSHKFVICRLDQHIFSGFTKSLKNLPPCHRTDI
notes: first residue C27 mutated to A to increase solubility in E. coli; Cloned into pGEX-3X; GST itself is known to dimerise; also called recombinant GST-SDIM1; SDIM1-GST fusion protein; source: E. coli Rosetta cells, purified (glutathione column)
binding result: binds
